Laboratory results from article PMC3475010 (BMC Structural Biology, 2012).
Where two headings read alike, the source gives them in different places.

Assays:
[1] = molecular target: T1, StAckA (Salmonella typhimurium acetate kinase, AckA) (Salmonella enterica, UniProt P63411); experiment: initial velocity assay, acetyl-phosphate synthesis direction; format: biochemical; details: co-substrate acetate, Mg2+, pH 7.5, 37 °C
T1 construct: expressed in E. coli; Ni-NTA and gel filtration; homodimer
T1 sequence (P63411 1-400): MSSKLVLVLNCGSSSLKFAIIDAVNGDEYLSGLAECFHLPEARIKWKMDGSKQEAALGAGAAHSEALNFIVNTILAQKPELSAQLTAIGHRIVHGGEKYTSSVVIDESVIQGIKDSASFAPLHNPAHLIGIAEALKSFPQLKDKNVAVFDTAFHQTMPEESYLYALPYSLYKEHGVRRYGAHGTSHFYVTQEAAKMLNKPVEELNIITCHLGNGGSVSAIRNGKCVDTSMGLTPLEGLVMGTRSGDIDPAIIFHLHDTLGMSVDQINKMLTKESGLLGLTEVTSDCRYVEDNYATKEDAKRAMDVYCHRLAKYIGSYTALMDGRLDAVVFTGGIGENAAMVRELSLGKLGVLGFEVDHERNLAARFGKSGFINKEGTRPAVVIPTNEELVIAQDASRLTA
Excerpt: (§1) initial velocity assay, acetyl-phosphate synthesis direction on StAckA (Salmonella typhimurium acetate kinase, AckA)

[2] = molecular target: T1, StAckA (Salmonella typhimurium acetate kinase, AckA); experiment: CD thermal denaturation; format: binding; details: ligand close to its Km, pH 7.5; unliganded reference Tm 45 °C
[3] = molecular target: T1, StAckA (Salmonella typhimurium acetate kinase, AckA); experiment: kinetic assay after […] min preincubation at […] °C with inhibitor; format: biochemical
[4] = molecular target: T1, StAckA (Salmonella typhimurium acetate kinase, AckA); experiment: X-ray crystal structure, […] Å; format: binding; details: dimeric interface pocket, one citrate per dimer; citrate from crystallization condition
[5] = molecular target: T1, StAckA (Salmonella typhimurium acetate kinase, AckA); experiment: CD thermal denaturation; format: binding; details: read-out: dTm
[6] = molecular target: T1, StAckA (Salmonella typhimurium acetate kinase, AckA); experiment: inhibition of acetate utilization, kinetic assay; format: biochemical; details: equimolar to acetate; not a substrate
purified protein [7] = substrate: Nc1ncnc2c1ncn2[C@@H]1O[C@H](COP(=O)(O)OP(=O)(O)O)[C@@H](O)[C@H]1O; experiment: purified protein; format: biochemical, Salmonella enterica; details: reverse reaction (ATP synthesis), acetyl-phosphate, Mg2+, pH 7.5, 37 °C
purified protein [8] = substrate: CC(=O)OP(=O)(O)O; experiment: purified protein; format: biochemical, Salmonella enterica; details: reverse reaction (ATP synthesis), ADP, Mg2+, pH 7.5, 37 °C
purified protein [9] = substrate: CCC(=O)O; experiment: purified protein; format: biochemical, Salmonella enterica; details: ATP, Mg2+, pH 7.5, 37 °C
purified protein [10] = substrate: Nc1ncnc2c1ncn2[C@@H]1O[C@H](COP(=O)(O)OP(=O)(O)OP(=O)(O)O)[C@@H](O)[C@H]1O; experiment: purified protein; format: biochemical, Salmonella enterica; details: co-substrate acetate, Mg2+, pH 7.5, 37 °C
purified protein [11] = substrate: CC(=O)O; experiment: purified protein; details: ATP, Mg2+, pH 7.5, 37 °C
[12] = substrate: O=c1ccn([C@@H]2O[C@H](COP(=O)(O)OP(=O)(O)OP(=O)(O)O)[C@@H](O)[C@H]2O)c(=O)[nH]1; experiment: initial velocity assay, acetyl-phosphate synthesis direction; format: biochemical, Salmonella enterica; details: co-substrate acetate, Mg2+, pH 7.5, 37 °C
Excerpt: as §1

[13] = substrate: Nc1nc2c(ncn2[C@@H]2O[C@H](COP(=O)(O)OP(=O)(O)OP(=O)(O)O)[C@@H](O)[C@H]2O)c(=O)[nH]1; experiment: as above; format: biochemical, Salmonella enterica; details: co-substrate acetate, Mg2+, pH 7.5, 37 °C
Excerpt: as §1

With `Nc1ccn([C@@H]2O[C@H](COP(=O)(O)OP(=O)(O)OP(=O)(O)O)[C@@H](O)[C@H]2O)c(=O)n1` [CTP] the “kcat/Km(s^-1 mM^-1)” value [1] was 88 ± 42 µM.

For `Nc1ncnc2c1ncn2[C@@H]1O[C@H](COP(=O)(O)OP(=O)(O)O)[C@@H](O)[C@H]1O` [ADP], the Tm [2] was 52 °C.

`O=C(O)C[C@H](O)C(=O)O` [Malate] was tested, and the IC50 ([3]; read-out: [I]) was 1 ± 0.5 mM.

With `CC(=O)OP(=O)(O)O` [Acetyl-phosphate] the Tm [2] was 54 °C.

For `NCCC(N)C(=O)O` (stereo not drawn) [2,4-DAB], the IC50 ([3]; read-out: kcat/Km(s^-1 mM^-1), saturating cognate ligand, 37 °C) was 5 ± 2.2 mM.

With `O=C(O)CCC(=O)C(=O)O` [α-KG] the IC50 ([3]; read-out: kcat(s^-1)) was 7 ± 1.8 mM.

Molecule `O=C(O)CCC(=O)O` [Succinate] has an IC50 ([3]; read-out: Vmax(μmol min^-1 mg^-1)) of 75 ± 20 mM.

`O=C(O)CC(O)(CC(=O)O)C(=O)O` [Citrate] was tested, and the IC50 ([3]; read-out: Km) was 63 ± 15 mM, the “X-ray crystal structure, 1.90 Å” value [4] was “only one citrate binds at the dimeric interface resulting in an asymmetric dimer” and the ΔTm at 10000 µM [5] was 10 °C.

In the case of `CCC(=O)C(=O)O` [2-KB], the IC50 ([3]; read-out: [I]) is reported as 3 ± 1.3 mM.

In the case of `CCCC(=O)O` [butyrate], the “% reduction of rate at equimolar concentration” value [6] is reported as 40%.

B1: StAckA (Salmonella typhimurium acetate kinase, AckA) (Salmonella enterica subsp. enterica serovar Typhimurium str. LT2) (protein)
chain: T1 sequence (P63411 1-400)
notes: expressed in E. coli; Ni-NTA and gel filtration; homodimer
In the case of B1, the Km (purified protein [7]) is reported as 100 ± 3 µM, the Vmax (purified protein [7]) is reported as 2340 µmol/min/mg and the kcat (purified protein [7]) is reported as 1750 ± 65 s⁻¹. It also gave a kcat/Km (purified protein [7]) of 1.7645e+07 ± 10000 M⁻¹ s⁻¹, a Km (purified protein [8]) of 280 ± 40 µM and a Vmax (purified protein [8]) of 2350 µmol/min/mg. For the same molecule, the kcat (purified protein [8]) was 1760 ± 25 s⁻¹, the kcat/Km (purified protein [8]) was 6.3e+06 ± 45000 M⁻¹ s⁻¹ and the Km (purified protein [9]) was 11200 ± 100 µM. For the same molecule, the Vmax (purified protein [9]) was 1250 µmol/min/mg, the kcat (purified protein [9]) was 940 ± 85 s⁻¹ and the kcat/Km (purified protein [9]) was 85000 ± 10000 M⁻¹ s⁻¹. The Km (purified protein [10]) was 70 ± 5 µM, the Vmax (purified protein [10]) was 1550 µmol/min/mg and the kcat (purified protein [10]) was 1170 ± 85 s⁻¹. It also gave a kcat/Km (purified protein [10]) of 1.686e+07 ± 50000 M⁻¹ s⁻¹, a Km (purified protein [11]) of 1200 ± 100 µM and a Vmax (purified protein [11]) of 1560 µmol/min/mg. For the same molecule, the kcat/Km (purified protein [11]) was 985000 M⁻¹ s⁻¹, the Km [12] was 96 ± 58 µM and the Km [13] was 78 ± 27 µM.
